Assay results from publication PMC9482650, “Quantitative fragmentomics allow affinity mapping of interactomes” (Nature Communications, 2022).

How the values were obtained:
Test in all cases: holdup assay
Parameters in all cases: key: below the threshold = too weak to quantify, mostly under pKd 3.1 to 4
PICK1, Q9NRD5 = target: PICK1, Q9NRD5
Inadl_4, Q8NI35 = target: Inadl_4, Q8NI35
CASK, O14936 = target: CASK, O14936
DLG3_2, Q92796 = target: T1, DLG3_2, Q92796
T1 sequence (Q92796 221-321, limits assumed, looked up): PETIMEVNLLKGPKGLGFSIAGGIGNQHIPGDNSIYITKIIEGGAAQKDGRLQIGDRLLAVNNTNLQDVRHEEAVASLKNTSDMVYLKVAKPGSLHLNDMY

SCRIB_1, Q14160 = target: SCRIB_1, Q14160
Sequence of SCRIB_1, Q14160 (Q14160 718-814): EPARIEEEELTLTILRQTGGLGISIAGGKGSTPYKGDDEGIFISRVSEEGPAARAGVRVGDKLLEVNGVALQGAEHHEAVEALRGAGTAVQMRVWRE

Inadl_10, Q8NI35 = target: Inadl_10, Q8NI35
Sequence of Inadl_10, Q8NI35 (Q8NI35 1673-1763): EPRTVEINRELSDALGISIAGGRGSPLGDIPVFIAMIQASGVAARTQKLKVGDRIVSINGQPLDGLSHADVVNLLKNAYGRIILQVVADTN

RHPN1, Q8TCX5 = target: T2, RHPN1, Q8TCX5
T2 sequence (Q8TCX5 508-602, limits assumed, looked up): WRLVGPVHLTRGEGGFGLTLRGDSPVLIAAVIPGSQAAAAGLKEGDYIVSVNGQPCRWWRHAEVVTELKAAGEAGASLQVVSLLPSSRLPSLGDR

DLG1_1, Q12959 = target: DLG1_1, Q12959
SCRIB_2, Q14160 = target: SCRIB_2, Q14160
Sequence of SCRIB_2, Q14160 (Q14160 857-960): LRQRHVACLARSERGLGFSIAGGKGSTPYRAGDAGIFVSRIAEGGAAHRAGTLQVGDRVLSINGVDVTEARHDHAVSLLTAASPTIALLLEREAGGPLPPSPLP

LNX2_3, Q8N448 = target: T3, LNX2_3, Q8N448
T3 sequence (Q8N448 463-564, limits assumed, looked up): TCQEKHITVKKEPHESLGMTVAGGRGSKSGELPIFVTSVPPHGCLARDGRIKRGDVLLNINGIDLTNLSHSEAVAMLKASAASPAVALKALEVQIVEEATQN

DLG1_3, Q12959 = target: DLG1_3, Q12959
LRRC7, Q96NW7 = target: T4, LRRC7, Q96NW7
T4 sequence (Q96NW7 1440-1537, limits assumed, looked up): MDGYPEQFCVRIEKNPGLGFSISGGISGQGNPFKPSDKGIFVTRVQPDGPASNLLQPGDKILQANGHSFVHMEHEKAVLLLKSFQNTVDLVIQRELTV

MAGI2_3, Q86UL8 = target: MAGI2_3, Q86UL8
Sequence of MAGI2_3, Q86UL8 (Q86UL8 600-682): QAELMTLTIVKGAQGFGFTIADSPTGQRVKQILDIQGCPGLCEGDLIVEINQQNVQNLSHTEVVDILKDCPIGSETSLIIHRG

LNX1_1, Q8TBB1 = target: LNX1_1, Q8TBB1
Sequence of LNX1_1, Q8TBB1 (Q8TBB1 261-371): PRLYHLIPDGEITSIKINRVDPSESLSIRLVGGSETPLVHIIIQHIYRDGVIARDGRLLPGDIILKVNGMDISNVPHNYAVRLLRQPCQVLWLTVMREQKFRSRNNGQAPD

RAPGEF6, Q8TEU7 = target: T5, RAPGEF6, Q8TEU7
T5 sequence (Q8TEU7 525-625, limits assumed, looked up): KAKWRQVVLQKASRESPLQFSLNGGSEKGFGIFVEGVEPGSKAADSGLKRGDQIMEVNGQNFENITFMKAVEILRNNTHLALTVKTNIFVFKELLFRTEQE

PDZRN4_1, Q6ZMN7 = target: PDZRN4_1, Q6ZMN7
Sequence of PDZRN4_1, Q6ZMN7 (Q6ZMN7 213-318): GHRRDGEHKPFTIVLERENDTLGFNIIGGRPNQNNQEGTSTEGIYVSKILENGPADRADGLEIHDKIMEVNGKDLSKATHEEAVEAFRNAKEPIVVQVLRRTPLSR

MPP2, Q14168 = target: T6, MPP2, Q14168
T6 sequence (Q14168 180-250, limits assumed, looked up): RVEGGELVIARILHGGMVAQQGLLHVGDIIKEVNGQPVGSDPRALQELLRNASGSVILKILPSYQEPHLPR

Inadl_2, Q8NI35 = target: Inadl_2, Q8NI35
Sequence of Inadl_2, Q8NI35 (Q8NI35 238-335): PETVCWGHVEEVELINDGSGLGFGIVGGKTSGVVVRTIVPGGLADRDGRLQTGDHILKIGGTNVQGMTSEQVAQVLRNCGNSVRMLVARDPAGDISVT

DFNB31_2, Q9P202 = target: T7, DFNB31_2, Q9P202
T7 sequence (Q9P202 274-371, limits assumed, looked up): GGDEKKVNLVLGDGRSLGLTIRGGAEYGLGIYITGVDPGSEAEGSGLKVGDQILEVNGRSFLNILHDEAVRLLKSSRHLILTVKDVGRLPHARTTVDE

GRIP1_3, Q9Y3R0 = target: T8, GRIP1_3, Q9Y3R0
T8 sequence (Q9Y3R0 247-346, limits assumed, looked up): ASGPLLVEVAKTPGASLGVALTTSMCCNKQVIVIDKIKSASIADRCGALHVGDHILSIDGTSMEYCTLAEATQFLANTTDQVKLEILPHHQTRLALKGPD

TIAM2, Q8IVF5 = target: T9, TIAM2, Q8IVF5
T9 sequence (Q8IVF5 885-986, limits assumed, looked up): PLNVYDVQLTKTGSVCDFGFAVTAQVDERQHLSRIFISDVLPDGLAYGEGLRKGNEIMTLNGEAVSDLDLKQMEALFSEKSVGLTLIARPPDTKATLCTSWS

NHERF3_3, Q5T2W1 = target: T10, NHERF3_3, Q5T2W1
T10 sequence (Q5T2W1 238-333, limits assumed, looked up): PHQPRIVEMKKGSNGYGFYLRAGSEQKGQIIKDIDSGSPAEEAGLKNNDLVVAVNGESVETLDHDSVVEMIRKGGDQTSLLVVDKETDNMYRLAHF

DLG3_3, Q92796 = target: T11, DLG3_3, Q92796
T11 sequence (Q92796 374-475, limits assumed, looked up): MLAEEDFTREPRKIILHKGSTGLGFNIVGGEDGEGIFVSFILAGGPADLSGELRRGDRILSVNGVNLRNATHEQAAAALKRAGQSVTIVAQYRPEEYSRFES

GRID2IP_1, A4D2P6 = target: GRID2IP_1, A4D2P6
Sequence of GRID2IP_1, A4D2P6 (A4D2P6 1-87): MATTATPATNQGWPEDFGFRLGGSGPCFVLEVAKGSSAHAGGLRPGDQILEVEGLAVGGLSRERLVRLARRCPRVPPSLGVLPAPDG

LDB3, O75112 = target: LDB3, O75112
Sequence of LDB3, O75112 (O75112 1-94): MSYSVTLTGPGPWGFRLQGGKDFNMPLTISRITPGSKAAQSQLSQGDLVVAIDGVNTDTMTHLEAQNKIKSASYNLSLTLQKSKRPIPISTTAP

GOPC, Q9HD26 = target: GOPC, Q9HD26
AHNAK1, Q09666 = target: AHNAK1, Q09666
Sequence of AHNAK1, Q09666 (Q09666 4-100): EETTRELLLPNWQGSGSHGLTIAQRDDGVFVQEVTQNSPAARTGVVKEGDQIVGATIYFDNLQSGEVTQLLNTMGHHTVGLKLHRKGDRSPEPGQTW

[1] = plain residues with an end cap or a label only (N-terminal biotin on a linker: ado-ado)
[2] = plain residues with an end cap or a label only (N-terminal biotin on a linker: ttds)

Sequence of PICK1, Q9NRD5 (Q9NRD5 17-115): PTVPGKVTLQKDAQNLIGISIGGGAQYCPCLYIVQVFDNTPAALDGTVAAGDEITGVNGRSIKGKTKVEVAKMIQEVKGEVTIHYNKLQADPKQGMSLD
Sequence of CASK, O14936 (O14936 487-570): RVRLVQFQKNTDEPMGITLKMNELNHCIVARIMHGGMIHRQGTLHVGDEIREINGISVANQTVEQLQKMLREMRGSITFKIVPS
Sequence of Inadl_4, Q8NI35 (Q8NI35 547-651): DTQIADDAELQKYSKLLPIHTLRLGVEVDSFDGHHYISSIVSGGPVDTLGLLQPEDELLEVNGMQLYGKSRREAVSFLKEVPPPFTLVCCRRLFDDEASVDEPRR

SQDPKKPSRV [CBY2, Q8NA61]
pKd (PICK1, Q9NRD5; [1]): 4.21 | pKd (Inadl_4, Q8NI35; [1]): below the threshold | pKd (CASK, O14936; [1]): below the threshold | pKd (DLG3_2, Q92796; [1]): below the threshold | pKd (SCRIB_1, Q14160; [1]): below the threshold | pKd (Inadl_10, Q8NI35; [1]): below the threshold | pKd (RHPN1, Q8TCX5; [1]): below the threshold | pKd (DLG1_1, Q12959; [1]): below the threshold | pKd (SCRIB_2, Q14160; [1]): below the threshold | pKd (LNX2_3, Q8N448; [1]): below the threshold | pKd (DLG1_3, Q12959; [1]): below the threshold | pKd (LRRC7, Q96NW7; [1]): below the threshold | pKd (MAGI2_3, Q86UL8; [1]): below the threshold | pKd (LNX1_1, Q8TBB1; [1]): 3.5 | pKd (RAPGEF6, Q8TEU7; [1]): below the threshold | pKd (PDZRN4_1, Q6ZMN7; [1]): below the threshold | pKd (MPP2, Q14168; [1]): below the threshold | pKd (Inadl_2, Q8NI35; [1]): below the threshold | pKd (DFNB31_2, Q9P202; [1]): below the threshold | pKd (GRIP1_3, Q9Y3R0; [1]): below the threshold | pKd (TIAM2, Q8IVF5; [1]): below the threshold | pKd (NHERF3_3, Q5T2W1; [1]): below the threshold | pKd (DLG3_3, Q92796; [1]): below the threshold | pKd (GRID2IP_1, A4D2P6; [1]): below the threshold | pKd (LDB3, O75112; [1]): below the threshold | pKd (GOPC, Q9HD26; [1]): 3.75 | pKd (AHNAK1, Q09666; [1]): below the threshold

DLDEEEDTHL [PODXL, O00592]
pKd (PICK1, Q9NRD5; [2]): below the threshold | pKd (Inadl_4, Q8NI35; [2]): below the threshold | pKd (CASK, O14936; [2]): below the threshold | pKd (DLG3_2, Q92796; [2]): below the threshold | pKd (SCRIB_1, Q14160; [2]): 5.08 | pKd (Inadl_10, Q8NI35; [2]): below the threshold | pKd (RHPN1, Q8TCX5; [2]): 4.1 | pKd (DLG1_1, Q12959; [2]): 3.63 | pKd (SCRIB_2, Q14160; [2]): below the threshold | pKd (LNX2_3, Q8N448; [2]): below the threshold | pKd (DLG1_3, Q12959; [2]): below the threshold | pKd (LRRC7, Q96NW7; [2]): below the threshold | pKd (MAGI2_3, Q86UL8; [2]): below the threshold | pKd (LNX1_1, Q8TBB1; [2]): below the threshold | pKd (RAPGEF6, Q8TEU7; [2]): 3.48 | pKd (PDZRN4_1, Q6ZMN7; [2]): below the threshold | pKd (MPP2, Q14168; [2]): below the threshold | pKd (Inadl_2, Q8NI35; [2]): below the threshold | pKd (DFNB31_2, Q9P202; [2]): below the threshold | pKd (GRIP1_3, Q9Y3R0; [2]): below the threshold | pKd (TIAM2, Q8IVF5; [2]): below the threshold | pKd (NHERF3_3, Q5T2W1; [2]): below the threshold | pKd (DLG3_3, Q92796; [2]): below the threshold | pKd (GRID2IP_1, A4D2P6; [2]): below the threshold | pKd (LDB3, O75112; [2]): 3.49 | pKd (GOPC, Q9HD26; [2]): below the threshold | pKd (AHNAK1, Q09666; [2]): below the threshold
